The values below come from the Human Domainome abundance scans (Beltran et al. 2025).

± gives the uncertainty stated by the source.

Sequences and labels used below:
B1: Transcription elongation regulator 1-like protein, residues 448 to 504; numbered along this chain, Q5VWI1 (parent)
chain: LPLEERVTHFRDMLLERGVSAFSTWEKELHKIVFDPRYLLLNSEERKQIFEQFVKTR

Variants of B1 are the subject of this data set. Nature of the data set: abundance fitness (aPCA) (normalised: wild type 0, dead -1); higher = more abundant; growth selection in yeast, the domain comes from the species named. To be noted: Homo sapiens.
As for LPLEERVTHFRDMLLERGVSTFSTWEKELHKIVFDPRYLLLNSEERKQIFEQFVKTR [A21T], the abundance fitness was -0.399 ± 0.3.

Take LPLEERVTHFRDMLLERGVSKFSTWEKELHKIVFDPRYLLLNSEERKQIFEQFVKTR [A21K]: the abundance fitness is -0.286 ± 0.11.

For the variant LPLEERVTHFRDMLLERGVSEFSTWEKELHKIVFDPRYLLLNSEERKQIFEQFVKTR [A21E], the abundance fitness is -0.165 ± 0.17.

As for LPLEERVTHFRDMLLERGVSSFSTWEKELHKIVFDPRYLLLNSEERKQIFEQFVKTR [A21S], the abundance fitness was -0.303 ± 0.19.

Consider LPLEERVTHFRDMLLERGVSWFSTWEKELHKIVFDPRYLLLNSEERKQIFEQFVKTR [A21W], for which the abundance fitness is -0.594 ± 0.26.

On to LPLEERVTHFRDMLLERGVSCFSTWEKELHKIVFDPRYLLLNSEERKQIFEQFVKTR [A21C], for which the abundance fitness was -0.202 ± 0.34.

Regarding LPLEERVTHFRDMLLERGVSYFSTWEKELHKIVFDPRYLLLNSEERKQIFEQFVKTR [A21Y], the abundance fitness is -0.482 ± 0.11.

LPLEERVTHFRDMLLERGVSGFSTWEKELHKIVFDPRYLLLNSEERKQIFEQFVKTR [A21G]: the abundance fitness is -0.365 ± 0.094.

Consider LPLEERVTHFRDMLLERGVSVFSTWEKELHKIVFDPRYLLLNSEERKQIFEQFVKTR [A21V], for which the abundance fitness was -0.22 ± 0.15.

In the case of LPLEERVTHFRDMLLERGVSQFSTWEKELHKIVFDPRYLLLNSEERKQIFEQFVKTR [A21Q], the abundance fitness was -0.245 ± 0.34.

LPLEERVTHFRDMLLERGVSPFSTWEKELHKIVFDPRYLLLNSEERKQIFEQFVKTR [A21P]: the abundance fitness is -0.114 ± 0.1.

As to LPLEERVTHFRDMLLERGVSRFSTWEKELHKIVFDPRYLLLNSEERKQIFEQFVKTR [A21R], the abundance fitness is -0.364 ± 0.19.

Consider LPLEERVTHFRDMLLERGVSFFSTWEKELHKIVFDPRYLLLNSEERKQIFEQFVKTR [A21F], for which the abundance fitness was -0.593 ± 0.23.

Turning to LPLEERVTHFRDMLLEREVSAFSTWEKELHKIVFDPRYLLLNSEERKQIFEQFVKTR [G18E], the abundance fitness is 0.071 ± 0.12.

Take LPLEERVTHFRDMLLERLVSAFSTWEKELHKIVFDPRYLLLNSEERKQIFEQFVKTR [G18L]: the abundance fitness is -0.545 ± 0.15.

LPLEERVTHFRDMLLERTVSAFSTWEKELHKIVFDPRYLLLNSEERKQIFEQFVKTR [G18T]: the abundance fitness came to 0.098 ± 0.24.

Take LPLEERVTHFRDMLLERKVSAFSTWEKELHKIVFDPRYLLLNSEERKQIFEQFVKTR [G18K]: the abundance fitness came to 0.719 ± 0.15.

For LPLEERVTHFRDMLLERVVSAFSTWEKELHKIVFDPRYLLLNSEERKQIFEQFVKTR [G18V], the abundance fitness is -0.612 ± 0.26.

In the case of LPLEERVTHFRDMLLERAVSAFSTWEKELHKIVFDPRYLLLNSEERKQIFEQFVKTR [G18A], the abundance fitness is -0.588 ± 0.12.

With LPLEERVTHFRDMLLERCVSAFSTWEKELHKIVFDPRYLLLNSEERKQIFEQFVKTR [G18C], the abundance fitness is -0.714 ± 0.44.

As to LPLEERVTHFRDMLLERQVSAFSTWEKELHKIVFDPRYLLLNSEERKQIFEQFVKTR [G18Q], the abundance fitness is -0.454 ± 0.31.

LPLEERVTHFRDMLLERWVSAFSTWEKELHKIVFDPRYLLLNSEERKQIFEQFVKTR [G18W]: the abundance fitness was -0.746 ± 0.25.

As for LPLEERVTHFRDMLLERMVSAFSTWEKELHKIVFDPRYLLLNSEERKQIFEQFVKTR [G18M], the abundance fitness is -0.96 ± 0.36.

Consider LPLEERVTHFRDMLLERSVSAFSTWEKELHKIVFDPRYLLLNSEERKQIFEQFVKTR [G18S], for which the abundance fitness is -0.33 ± 0.14.

Turning to LPLEERVTHFRDMLLERRVSAFSTWEKELHKIVFDPRYLLLNSEERKQIFEQFVKTR [G18R], the abundance fitness was -0.316 ± 0.11.

For the variant LPLEERVTHFRDMLLERGVLAFSTWEKELHKIVFDPRYLLLNSEERKQIFEQFVKTR [S20L], the abundance fitness is -0.594 ± 0.22.

Consider LPLEERVTHFRDMLLERGVNAFSTWEKELHKIVFDPRYLLLNSEERKQIFEQFVKTR [S20N], for which the abundance fitness was found to be 0.589 ± 0.17.

As to LPLEERVTHFRDMLLERGVGAFSTWEKELHKIVFDPRYLLLNSEERKQIFEQFVKTR [S20G], the abundance fitness was -0.283 ± 0.1.

Consider LPLEERVTHFRDMLLERGVPAFSTWEKELHKIVFDPRYLLLNSEERKQIFEQFVKTR [S20P], for which the abundance fitness is -0.535 ± 0.45.

For LPLEERVTHFRDMLLERGVCAFSTWEKELHKIVFDPRYLLLNSEERKQIFEQFVKTR [S20C], the abundance fitness was -0.169 ± 0.25.

In the case of LPLEERVTHFRDMLLERGVRAFSTWEKELHKIVFDPRYLLLNSEERKQIFEQFVKTR [S20R], the abundance fitness is -1 ± 0.38.

For LPLEERVTHFRDMLLERGVAAFSTWEKELHKIVFDPRYLLLNSEERKQIFEQFVKTR [S20A], the abundance fitness was -0.369 ± 0.16.

In the case of LPLEERVTHFRDMLLERGVFAFSTWEKELHKIVFDPRYLLLNSEERKQIFEQFVKTR [S20F], the abundance fitness is -0.523 ± 0.14.

As for LPLEERVTHFRDMLLERGVWAFSTWEKELHKIVFDPRYLLLNSEERKQIFEQFVKTR [S20W], the abundance fitness is -0.371 ± 0.18.

On to LPLEERVTHFRDMLLERGVEAFSTWEKELHKIVFDPRYLLLNSEERKQIFEQFVKTR [S20E], for which the abundance fitness was -0.563 ± 0.23.

In the case of LPLEERVTHFRDMLLERGVTAFSTWEKELHKIVFDPRYLLLNSEERKQIFEQFVKTR [S20T], the abundance fitness is -0.38 ± 0.33.

With LPLEERVTHFRDMLLERGVDAFSTWEKELHKIVFDPRYLLLNSEERKQIFEQFVKTR [S20D], the abundance fitness was -0.185 ± 0.22.

For LPLEERVTHFRDMLLERGVVAFSTWEKELHKIVFDPRYLLLNSEERKQIFEQFVKTR [S20V], the abundance fitness was -0.691 ± 0.25.

As for LPLEERVTHFRDMLLERGLSAFSTWEKELHKIVFDPRYLLLNSEERKQIFEQFVKTR [V19L], the abundance fitness was -0.998 ± 0.32.

For LPLEERVTHFRDMLLERGGSAFSTWEKELHKIVFDPRYLLLNSEERKQIFEQFVKTR [V19G], the abundance fitness is -0.7 ± 0.13.

For LPLEERVTHFRDMLLERGTSAFSTWEKELHKIVFDPRYLLLNSEERKQIFEQFVKTR [V19T], the abundance fitness is -0.674 ± 0.25.

Regarding LPLEERVTHFRDMLLERGSSAFSTWEKELHKIVFDPRYLLLNSEERKQIFEQFVKTR [V19S], the abundance fitness was -0.805 ± 0.25.

As for LPLEERVTHFRDMLLERGISAFSTWEKELHKIVFDPRYLLLNSEERKQIFEQFVKTR [V19I], the abundance fitness was -0.528 ± 0.15.

For LPLEERVTHFRDMLLERGQSAFSTWEKELHKIVFDPRYLLLNSEERKQIFEQFVKTR [V19Q], the abundance fitness was -0.625 ± 0.4.

Consider LPLEERVTHFRDMLLERGRSAFSTWEKELHKIVFDPRYLLLNSEERKQIFEQFVKTR [V19R], for which the abundance fitness is -0.916 ± 0.2.

For LPLEERVTHFRDMLLERGASAFSTWEKELHKIVFDPRYLLLNSEERKQIFEQFVKTR [V19A], the abundance fitness is -0.709 ± 0.22.
